In paper PMC8406272 one finds binding data, which are given here for four sequences.

Series [1] deals with T1, Lsr2 (Streptomyces venezuelae ATCC 10712) (UniProt F2R951).
T1 sequence: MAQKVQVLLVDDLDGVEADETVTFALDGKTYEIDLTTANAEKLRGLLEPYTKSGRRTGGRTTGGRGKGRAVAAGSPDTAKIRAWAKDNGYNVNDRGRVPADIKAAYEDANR
Nature of the series: EMSA. To be noted: 10 mM Tris pH 7.8, 5 mM MgCl2, 60 mM KCl, 10% glycerol; Lsr2 (EMSA, AFM): room temperature 10 min then ice 30 min; CmlR: 30 C 30 min. (In EMSA bound probe runs differently from free probe, usually more slowly.)

The target in series [2] is T2, CmlR (Streptomyces venezuelae ATCC 10712) (UniProt F2RB72).
T2 sequence: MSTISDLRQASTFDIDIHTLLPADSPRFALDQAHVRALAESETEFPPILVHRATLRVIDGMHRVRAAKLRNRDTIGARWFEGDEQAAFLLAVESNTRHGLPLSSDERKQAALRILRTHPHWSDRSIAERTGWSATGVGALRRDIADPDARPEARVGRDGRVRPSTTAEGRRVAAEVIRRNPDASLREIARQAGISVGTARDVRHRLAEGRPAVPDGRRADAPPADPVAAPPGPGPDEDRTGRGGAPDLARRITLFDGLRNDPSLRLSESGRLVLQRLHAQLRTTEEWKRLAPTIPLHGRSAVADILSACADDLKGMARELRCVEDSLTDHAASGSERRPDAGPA
Nature of the series: EMSA. As to conditions: 10 mM Tris pH 7.8, 5 mM MgCl2, 60 mM KCl, 10% glycerol; Lsr2 (EMSA, AFM): room temperature 10 min then ice 30 min; CmlR: 30 C 30 min.

In the case of “GGAGACGTTCAGGATCGCGGAACTCTGCTCAGTGGATTTCCGCAGCAGTTTGACCGCTTCCCGGCAGCAGTTCAGCACGGCGAAGAAATTGATGTCGAATATCTTCCGGGAAACCTCGTCCGGGGTCGTCATGAAATGGTTCATCGACGA (double strand) [sven0926 probe]”, the binding result in series [1] was “binds”.
For “GGCCCACCCCTTCCTTCACTTCCCTTTGCGGGCTCTTCCCTTTGCGGGCTCGGCCCTTCCCGGGTCCGGCGTCTCGAAGTCTGTGGATATCGGTCGCGGGCCGCAAGGGTGTGCAGATCACCACCCCGTGCAACTGAAGGAACCGGACAGTTGAACAGGGCGGTGAACCGCGCGGACTGAACGACCTTGCGTGGGCCGGGGGCGTATGACATAAAAATCCAGGCGTCGGCCCGGAGCACGACTCGGCCGGCGACGCGATCTGTTCTGTCT (double strand) [sven0924-0925 promoter probe]”, in series [2], the binding result was “binds”.
For the sequence “GGATTTTCCTGAACGCCGGAGTCGGGTGACCGATAACCGGACACTTTCCGGATTTCGTGTCCGGATTGAGCCCGGTTATACGTCGAATGCCTCAAGT (double strand) [sven0904-0905 probe]”, the binding result in series [1] is recorded as “binds”.
Turning to “GGTGGATTCCGTAGTCATGGCGCGGACCTTACAGCGATGATCCACGATCATCCGACCGGCTTGTCTATTTTCAGCCAGTCCGACTCGCACCCGGCTCGAACGAAGCCGTGGCCCGAGCGTCACGGAAAGCGTGACACATGTCAGCGCGGCGCCTTTTTCCCTGTTCCGCCGCAATTCCCCGGCACATGATTACGGCCGGAAGCGAAACACATCACCAGGACGTTGTTTCTCGAATTCTCG (double strand) [sven5133 promoter probe]”, the binding result in series [2] is listed as “no binding”.
